The results in this text go back to US20260242478A1 (published 2026).

In assay [1] the target is T1, PSMA Fab.
T1 construct: also called Anti-PSMA Fab; 006 PSMA Fab
Nature of the assay: clonal phage ELISA on captured PSMA Fab; wells pre-incubated with PSMA antigen as competitor. For orientation: In an ELISA, binding on a coated surface is turned into a signal by an enzyme label.
Protocol: (§1) Clonal phage were harvested as crude supernatants and screened via standard ELISAs. […] Prior to the addition of clonal phage. wells were incubated with blocking buffer and PSMA antigen or blocking buffer alone. Without washing or aspirating, clonal phage supernatants were then added to the wells and incubated for a short time. Wells were then washed followed by detection of bound phage using a horse radish conjugated anti-M13 antibody.

In assay [2] the target is T1, PSMA Fab. In words: clonal phage ELISA; biotinylated PSMA Fab on neutravidin plate, anti-M13 HRP detection.
Protocol: as §1
The target of assay [3] is T2, PSMA Fab.
T2 construct: Biotinylated and captured on neutravidin coated plates in the phage ELISA; also called Anti-PSMA Fab; 006 PSMA Fab
Nature of the assay: clonal phage ELISA on biotinylated PSMA Fab captured on neutravidin plates, anti-M13 HRP detection.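 Also: crude clonal phage supernatants tested, before phage were added, wells were pretreated with PSMA antigen in blocking buffer or with blocking buffer only.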
Protocol: as §1

Assay [4] deals with T2, PSMA Fab. Nature of the assay: clonal phage ELISA on captured PSMA Fab pre-incubated with PSMA antigen as competitor, anti-M13 HRP detection.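 Also: crude clonal phage supernatants tested by ELISA, wells first treated with blocking buffer plus PSMA antigen, bound phage read out via HRP-linked anti-M13 antibody.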
Protocol: as §1

Where no end group is shown, it is not given here.

B1: Phage-2859 (peptide)
peptide: WEFVCKPEWMCTGF
modifications: cysteine pairing not given here; also: fused to phage pIII, linker not given here
notes: Clonal phage of the Peptide-180 library; not shown: pIII filament protein of the display bacteriophage
As to B1, the “Phage binding ELISA signal (Anti-PSMA Fab, with competitor)” value with PSMA Fab [1] came out at 0.102. Besides, the “Phage binding ELISA signal, Anti-PSMA Fab” value with PSMA Fab [2] was 2.43.

B2: Phage-2855 (peptide)
peptide: WEMKCIPEWMCRGF
modifications: cysteine pairing not given here; also: fused to pIII of display bacteriophage, linker and sequence not given here
notes: as for B1
As for B2, in the assay with PSMA Fab [1], the “Phage binding ELISA signal (Anti-PSMA Fab, with competitor)” value came out at 0.139. In addition, the “Phage binding ELISA signal, Anti-PSMA Fab” value in the assay with PSMA Fab [2] is 2.44.
On to SMPRCVPVWMCEGF [Phage-2875], for which, in the assay with PSMA Fab [3], the “Phage binding ELISA signal, Anti-PSMA Fab” value came out at 2.39. Besides, the “Phage binding ELISA signal, Anti-PSMA Fab with PSMA antigen” value with PSMA Fab [4] was 0.107.

B3: Phage-2857 (peptide)
peptide: LERACVPSWMCTGF
modifications: cysteine pairing not given here; also: fused to pIII of display bacteriophage, linker and sequence not given here
notes: as for B1
Regarding B3, the “Phage binding ELISA signal (Anti-PSMA Fab, with competitor)” value in the assay with PSMA Fab [1] stood at 0.0938. Also, the “Phage binding ELISA signal, Anti-PSMA Fab” value in the assay with PSMA Fab [2] is 2.44.

B4: Phage-2863 (peptide)
peptide: FNVMCRPAWMCDFL
modifications: cysteine pairing not given here; also: fused to pIII of display bacteriophage, linker and sequence not given here
notes: as for B1
B4: the “Phage binding ELISA signal (Anti-PSMA Fab, with competitor)” value with PSMA Fab [1] is 0.158. In addition, the “Phage binding ELISA signal, Anti-PSMA Fab” value with PSMA Fab [2] worked out at 2.42.
As for WPQLCVPMWMCAGL [Phage-2869], the “Phage binding ELISA signal, Anti-PSMA Fab” value with PSMA Fab [3] turned out to be 2.4. Moreover, the “Phage binding ELISA signal, Anti-PSMA Fab with PSMA antigen” value with PSMA Fab [4] came out at 0.148.

B5: Phage-2858 (peptide)
peptide: TQAMCKPAWMCQGF
modifications: cysteine pairing not given here; also: fused to pIII of display bacteriophage, linker and sequence not given here
notes: as for B1
For the molecule B5, the “Phage binding ELISA signal (Anti-PSMA Fab, with competitor)” value with PSMA Fab [1] turned out to be 0.0783. The “Phage binding ELISA signal, Anti-PSMA Fab” value with PSMA Fab [2] came out at 2.44.
On to SEFWCVPAWMCEGF [Phage-2870], for which the “Phage binding ELISA signal, Anti-PSMA Fab” value with PSMA Fab [3] was determined as 2.4. In addition, the “Phage binding ELISA signal, Anti-PSMA Fab with PSMA antigen” value with PSMA Fab [4] worked out at 0.0842.
As for EPIRCVPQWMCVGF [Phage-2868], in the assay with PSMA Fab [3], the “Phage binding ELISA signal, Anti-PSMA Fab” value worked out at 2.4. For the same molecule, in the assay with PSMA Fab [4], the “Phage binding ELISA signal, Anti-PSMA Fab with PSMA antigen” value was 0.0918.
The like results for DDIRCKPAWMCMGF [Phage-2876] were, in that order, 2.38 and 0.127.

B6: Phage-2860 (peptide)
peptide: EWILCKPAWMCDGL
modifications: cysteine pairing not given here; also: fused to pIII of display bacteriophage, linker and sequence not given here
notes: as for B1
For B6, the “Phage binding ELISA signal (Anti-PSMA Fab, with competitor)” value with PSMA Fab [1] turned out to be 0.0639. Besides, the “Phage binding ELISA signal, Anti-PSMA Fab” value with PSMA Fab [2] was determined as 2.43.

B7: Phage-2861 (peptide)
peptide: WDRLCIPAWMCSGF
modifications: cysteine pairing not given here; also: fused to pIII of display bacteriophage, linker and sequence not given here
notes: as for B1
Take B7: the “Phage binding ELISA signal (Anti-PSMA Fab, with competitor)” value with PSMA Fab [1] is 0.197. The “Phage binding ELISA signal, Anti-PSMA Fab” value with PSMA Fab [2] was 2.43.

B8: Phage-2853 (peptide)
peptide: MLPLCVPAWMCSGF
modifications: cysteine pairing not given here; also: fused to pIII of display bacteriophage, linker and sequence not given here
notes: as for B1
Consider B8, for which the “Phage binding ELISA signal (Anti-PSMA Fab, with competitor)” value with PSMA Fab [1] is 0.12. The “Phage binding ELISA signal, Anti-PSMA Fab” value with PSMA Fab [2] amounted to 2.44.

B9: Phage-2856 (peptide)
peptide: VQRMCEPSWMCFGF
modifications: cysteine pairing not given here; also: fused to pIII of display bacteriophage, linker and sequence not given here
notes: as for B1
B9: the “Phage binding ELISA signal (Anti-PSMA Fab, with competitor)” value with PSMA Fab [1] turned out to be 0.0783. Moreover, the “Phage binding ELISA signal, Anti-PSMA Fab” value with PSMA Fab [2] was 2.44.
Consider TSPACVPSWMCVGF [Phage-2866], for which the “Phage binding ELISA signal, Anti-PSMA Fab” value in the assay with PSMA Fab [3] was 2.4. In the assay with PSMA Fab [4], the “Phage binding ELISA signal, Anti-PSMA Fab with PSMA antigen” value is 0.071.
Regarding LERVCKPLWMCTGL [Phage-2871], the “Phage binding ELISA signal, Anti-PSMA Fab” value with PSMA Fab [3] amounted to 2.39. Besides, the “Phage binding ELISA signal, Anti-PSMA Fab with PSMA antigen” value with PSMA Fab [4] is 0.134.
Regarding MSPLCKPVWMCAGF (cysteine pairing not given here; also: displayed on phage by fusion to pIII) [Phage-2865], in the assay with PSMA Fab [3], the “Phage binding ELISA signal, Anti-PSMA Fab” value turned out to be 2.4. In addition, in the assay with PSMA Fab [4], the “Phage binding ELISA signal, Anti-PSMA Fab with PSMA antigen” value came to 0.0828.

B10: Phage-2854 (peptide)
peptide: VHIMCKPAWMCLGF
modifications: cysteine pairing not given here; also: fused to pIII of display bacteriophage, linker and sequence not given here
notes: Clonal phage of the Peptide-180 library; the cell for position 10 (c11) is missing in the printed row; not shown: pIII filament protein of the display bacteriophage
For the molecule B10, the “Phage binding ELISA signal (Anti-PSMA Fab, with competitor)” value with PSMA Fab [1] was determined as 0.246. Besides, the “Phage binding ELISA signal, Anti-PSMA Fab” value with PSMA Fab [2] came to 2.44.
With VLPMCSPPWMCIGL [Phage-2867], the “Phage binding ELISA signal, Anti-PSMA Fab” value with PSMA Fab [3] stood at 2.4. In addition, the “Phage binding ELISA signal, Anti-PSMA Fab with PSMA antigen” value with PSMA Fab [4] came to 0.0912.

B11: Phage-2862 (peptide)
peptide: TGAYCVPQWMCSGF
modifications: cysteine pairing not given here; also: fused to phage pIII, linker not given here
notes: as for B1
As to B11, in the assay with PSMA Fab [1], the “Phage binding ELISA signal (Anti-PSMA Fab, with competitor)” value came out at 0.112. The “Phage binding ELISA signal, Anti-PSMA Fab” value with PSMA Fab [2] was found to be 2.43.
For IETWCVPRWMCEGF [Phage-2864], the “Phage binding ELISA signal, Anti-PSMA Fab” value with PSMA Fab [3] is 2.42. Besides, the “Phage binding ELISA signal, Anti-PSMA Fab with PSMA antigen” value with PSMA Fab [4] came out at 0.234.
On the same counts, the results for ETLRCEPMWMCMGF [Phage-2874] are 2.39 and 0.0975.
In the case of IDILCRPLWMCNGM [Phage-2872], the “Phage binding ELISA signal, Anti-PSMA Fab” value in the assay with PSMA Fab [3] came to 2.39. For the same molecule, the “Phage binding ELISA signal, Anti-PSMA Fab with PSMA antigen” value with PSMA Fab [4] came to 0.113.
Take IIRHCVPMWMCQGF [Phage-2873]: the “Phage binding ELISA signal, Anti-PSMA Fab” value in the assay with PSMA Fab [3] is 2.39. Besides, the “Phage binding ELISA signal, Anti-PSMA Fab with PSMA antigen” value in the assay with PSMA Fab [4] amounted to 0.224.
